Blank lines part the entries; values can stand above or below the binder they belong to.
B1: mouse CALHM1-FLAG (natural protein, UniProt D3Z291 1-348, looked up)
chain: MDKFRMIFQFLQSNQESFMNGICGIMALASAQMYSAFDFNCPCLPGYNVVYSLGILLTPPLVLFLLGLVMNNNISMLAEEWKRPAGRRAKDPAVLRYMFCSMAQRALIAPVVWVAVTLLDGKCFLCAFCTAVPVATLGNGSLVPGLPAPELARLLARVPCPEIYDGNWLLAREVAVRYLRCISQALGWSFVLLTTLLAFVVRSVRPCFTQVAFLKSKYWSHYIDIERKLFDETCTEHAKAFAKVCIQQFFEAMNHDLELGHTHGVLATATATATATEAVQSPSDRTEEEREKLRGITDQGTMNRLLTSWHKCKPPLRLGQEAPLMSNGWAGGEPRPPRKEVATYFSKV

What was measured:
native gel or EMSA = target: the molecule itself; experiment: native gel or EMSA
mouse CALHM1-FLAG = target: B1; experiment: native gel or EMSA
[1] = target: the molecule itself; experiment: single-molecule photobleaching

Binder: B1
stoichiometry N (native gel or EMSA): ~6

stoichiometry N (mouse CALHM1-FLAG): ≥ 1 CALHM3 subunit per channel
B2: mouse CALHM3-GFP (natural protein, UniProt J3QMI4 1-347, looked up)
chain: MDRFRMLFQHLQSSSESVMNGICLLLAAVTVKIYSSLDFNCPCLERYNALYGLGLLLTPPLALFLCGLLVNRQSVLMVEEWRRPAGHRRKDLGIIRYMCSSVLQRALAAPLVWILLALLDGKCFVCAFSNSVDPEKFLDFANMTPRQVQLFLAKVPCKEDELVKNSPARKAVSRYLRCLSQAIGWSITLLVIVVAFLARCLRPCFDQTVFLQRRYWSNYMDLEQKLFDETCCEHARDFAHRCVLHFFANMQSELRALGLRRDPAGGIPESQESSEPPELREDRDSGNGKAHLRAISSREQVDQLLSTWYSSKPPLDLAASPRRWGPGLNHRAPIAAPGTKLCHQLNV

B3: CALHM3-mCherry (natural protein, mouse, UniProt J3QMI4 1-347, looked up)
chain: MDRFRMLFQHLQSSSESVMNGICLLLAAVTVKIYSSLDFNCPCLERYNALYGLGLLLTPPLALFLCGLLVNRQSVLMVEEWRRPAGHRRKDLGIIRYMCSSVLQRALAAPLVWILLALLDGKCFVCAFSNSVDPEKFLDFANMTPRQVQLFLAKVPCKEDELVKNSPARKAVSRYLRCLSQAIGWSITLLVIVVAFLARCLRPCFDQTVFLQRRYWSNYMDLEQKLFDETCCEHARDFAHRCVLHFFANMQSELRALGLRRDPAGGIPESQESSEPPELREDRDSGNGKAHLRAISSREQVDQLLSTWYSSKPPLDLAASPRRWGPGLNHRAPIAAPGTKLCHQLNV
stoichiometry N [1]: 6

— PMC5934295 (Neuron, 2018)
